In a protein production outcome set (Wang et al. 2014) one finds protein production data, which are given here for 19 sequences.

The data set in a line: label from the status in PepcDB records.

With “MAENVGSDSSEFESISSSQKSYLKNCPFAGHEALPTKSTDSDNTEVLGNQISPAVVKTPILSFSSPTSLDSINDDVFRTPPENASLSSAAESEPRVGVSEIKLQGGSNLTTPFSMAETTLVSSSPSLPAENVRVSESNLKSSSSTAKTTPVSASPSVNARVSESNLNSSSSTTPVSVSPSEKVRVFETTPVSASPSEKVRVFETKCHSDSGDSVPLSSSPPSVAADDVRVPAKHLDSDSSPPTAIGRTMVLVKQRISASDNSASSSASEGTKVSKTENSGEVLPFKEIIEALLRNSGEKLNERDDKVSYVEILKQCGLKFPK”, the protein production entry is recorded as “failed”. Then “MAEPKFTSFTTADFINDVDMELFIDAVEKTAPVWVKEMKSRGLLKFSMNRVWNKGEVFRVVMTYEYKDRASFEANIAYLEDTFGKNPVFLQLVTTAKFTTSRCLVVMEV”, with “not failed”. Then “MAEPVDVLVLGGGPAALCIASELNQWGVAVGCIAPDPVDASWPNTYGIWADELKMVGLEHLLEHRWSDTVSFFGAGGSTAQDQSHAHGIDYGLFDRAELQRYWLERADGVVWHQDTAERVDATSATTSVSCVSGTTLQARLVIDASGSRTPHIRRPDQGPVAGQAAYGVVGRFSQPPIEAGRFVLMDYRCDHLSAAQRQEPPTFLYAMDLGDGVFFVEETSLALAPGFSYDVLKQRLQQRLDQRGVAITEVIHEEFCLFPMNLPLPDRSQPLLAFGGAASMVHPASGYMVGSLLRRGPDLAKALAEALANRNLGSAALAQRGWQALWPIELVLRHQLYQFGLGRLMGFNEALLRTHFATFFSLPREEWFGFLTNTLPLPRLMGVMLRLFALSPWELRRGLVLGAAMDQLPTFDQSSG”, with “failed”; and “MAERTSDPAANDRFYFRQLLSGRDFAGADPIAQQMRNFAYFIGDRETGEAVVVDPAYAADELAAALEADGMRLAGVLVTHHHPDHVGGSMMGFTLKGVAELLEHRSVPVHVNSHEADWVSQVTGIARSELSAHEHGDTISVGAIDIELLHTPGHTPGSQCFLVDGRLVAGDTLFLEGCGRTDFPGGNVDDMFRSLQALAKLPGDPTVYPGHWYSAEPSAPLEEVKRSNYVYRASNLDQWRMLMGG”, with “failed”; and “MAESKRDYYEVLGVSKDADDAAIKKAYRALAKKYHPDMNPGDAEAEKKFKEASEAYAVLSDAEKRRQYDQFGHAAFEGGAGGAGGFGGFDFNGADFGDIFGDIFGDLFGGGGRRGGRANNGPMKGANIRKSIRITFEEAVFGCKKELEVILKDPCTTCGGTGAKPGTSPETCPKCGGKGQVVYTSQSFFGTVQNVQTCPNCGGSGKVIKEKCTSCSGTGYTSSKKKIEVTIPAGIDNGQSVRIREKGEPGTNGGPRGDLLVEVNVSRHPIFQRQDMHIFSTVPISFAQAALGGDVKIQTVDGAVIYNVKPGTKTDTKVRLKGKGVPSLRNSAVRGDHYVTLVIQTPEKLSAEAKEALRRFDELSGNSLHQNDSNPEKSEKKTKRKGFMDKVKEAFEGED”, with “failed”. Then “MAESQALSDDIGFLLSRVGGMVLGAVNKALVPTGLRVRSYSVLVLACEQAEGVNQRGVAATMGLDPSQIVGLVDELEERGLVVRTLDPSDRRNKLIAATEEGRRLRDDAKARVDAAHGRYFEGIPDTVVNQMRDTLQSIAFPTFVE”, with “not failed”; and “MAEVHNQLEIKFRLTDGSDIGPKAFPDATTVSALKETVISEWPREKENGPKTVKEVKLISAGKVLENSKTVKDYRSPVSNLAGAVTTMHVIIQAPVTEKEKKPKGDPKMNKCVCSVM”, with “not failed”.

As for “MAEWSKAPDSSSGLRKRAWIRPWQREHMTIESVDHETRSMTQRFTVPEFFEGYKMITSTTKVNDSAIGLYSLVDISVEYDKTGPEIKDLDQVQFLVDYINELVLRTGGQLLRRLK”, the protein production entry is recorded as “failed”. Then “MAFELSPSDLEPLLQGACFFGSGGGGTMISARHLAANFRKGDYYPTDKVRVVDVDEATDGDCVMVAYMGAPDAINQVQWPNGPVEAALAARQRLESQGRKLAYVVAPESGALGFVVASLVAAKLGLAVVDADGAGRAVPSLPMLTYAAAGVPPTPAFLAGESGLCVELGVRMPPPDGQRREDISTVVEQMLRPILTNPQFGQFGGLAMWMMSPAQLGGALPVRGTLSRALKLGRALQDGKVKTAEAMLDFLRRELDIKGKLLFGPATLASSEVSTAGGFDLGKVVLEDGERRCTVLYQNESLLAWDSALSHPLATAPDAISYFVEGEGQHVFSNGDLSGNDHGLDPSVRGRKAAVIALPAAAPLSEGLILQSFADELAQLGYLGPYAPVDAGREGARLEHHHHHH”, with “not failed”; and “MAFIAVHDGLTGLHNRTFLTDHFDTLIKGAHRRRERLAVVQLDLDRFKQINDTLGHAAGDYVLVVTAQRMRDSCRASDLCARLGGDEFVMILNGAGSTEDINMLARRILAHINEPIVFQGTTILPGASGGIAVYPIDADNAQDLLVHADLALYSAKKLGGGNFSFFSEELRRELDYRKQLEHDIKVAISERAFQVYFQPQVSLTDGTISGIEALVRWNHHERGMISPGEFIPVAEKCGFMPEIGRIVIGKAINEAAEWNRAGIAFGRLAVNVSGTELREHDFDAFLFETLEKAGLPPQKLSLEIVESVILDDEKTGIAAKLRHIRAAGIHLELDDFGTGYASLSHVNPNEIDRLKIDRRFVQNIHENGDNSKIVRAITELARGLGISIVAEGAETEAELDSLMAIGCDQVQGYSIAFPMPQDKALEWLTARMPKKAKLRVLQGSLA”, with “failed”; and “MAFLIISLIIMLIGLLRLKINKRSIIGGIFLASGLILSLASLFFELLNLIYLYLPSGDFATLIIAYGILPLIFLLVCGYFIFNSKTMRTKEGKSATAKLSALFGLNLLIAFPALFMLFTFSTKTIPQIIWYILLYILLIDIILCFLFAAYILYSWMSQMIPLQKKIDYIIILGSGVRSEEVPPLLKSRLDKGIEYYQKNPTAKFVVSGGQGADEPVSEAFAMRKYLHSQNIPNHQILFEDKFTTTYENMLFSKRIINEDWSDKEMPPSIIFSTNNYHVLRGSLYAQRVKLKAQGVGGTHSTLFLTYGLNS”, with “failed”. “MAFNHLPAGVHDALGPLSVMPVTHSLPMAKNHRPDRSSSDTASSPSPGTVLDRLASGPSRASRITHTEHLPPREGRHAVWPDRIRSEVIAAVQAAGIEHPWAHQARAAEHALDGESVVVATGTASGKSLAYLVPALSALLDGSEAPNGRGATALYLAPTKALAADQCRSVKELSQPLGTAVRPAVYDGDTPVEEREWVRQYANYVLTNPDMLHRGILPAHPRWSSFLRALRYVVIDECHTYRGVFGSHVAQVLRRLRRLCARYGASPVFLLASATAAEPSVAASRLTGLRVVEVADDASPRGELVFALWEPPLTELHGEKGAPVRRTATAETADLLTDLTLQGVRSVAFVRSRRGAELIAVIAQERLAEIDRSLARRVAAYRGGYLPEERRALERALHSGELLGLAATTALELGVDVSGLDAVVIAGYPGTRASLWQQAGRAGRSGQGALAILVARDDPLDTFLVHHPEALFDQPVESTVLDPDNPYVLAPHLCAAAEELPLVEEDLALFGPSTADLLPQLEAAKLLRRRTKAWHWTRRERAADLTDIRGEGGRPVQIVEAGTGRLLGTVDAGAAHTTVHEGAVHLHQGRTYLVRELDLEDSVALVEEANPSYSTVARDTTAISVLETDVEVPWGEGRLCYGSVEVTNQVVSFLRRRLITGEVLGETKLDLPPRTLRTRAVWWTVTEDQLDAARITPEILGGALHAAEHASIGMLPLFATCDRWDIGGVSVPLHPDTLLPTVFVYDGHPGGAGFAERAFHTARDWLTATRQAIASCECDAGCPSCIQSPKCGNGNDPLHKRGAVRLLSVLLRGAAEQEKAGLPKEPARAAESSAD”: the protein production entry was “failed”. For “MAGAAQSHAVPGFRRNMVTICAMTATIMQALDTTIANVALPYMQGSLSASQDQINWVLTSYIVAAAIMTAPVGWIANRFGRKRIFIICSAGFTIASVMCGLAQDITQMVVFRLLQGVFGAALVPLSQAVMLDSYALHERAKAMSIWGMGVMMGPIMGPSLGAWLTETYSWHWVFFVNLPFGAITVLGLAMFMDETDKNQELKFDWFGFAALAVGIGAMQLALDRGEQLDWFNSPEIIIESIVSVVGFYYFFAHSFTTERPFIQFAIFKDRNFVGGVVFMTVMGLVLFSTMALSSPFLQNVEGYPIMTAGLLLASRGCGTFVAMMIVGRIMRYIEARTLIATGLSLTCASLYVMTGWTDQTSVSSVVVTSIIQGFGFGLVFVPLSTVAFMTLPGQLRTDGTAMLTLVRNVASSVGISVVIAKLSSGTTTAHAILTEHINPFNNALQMPNVTGMIDLSTTTGKAMMDAIVTMQAQIIAFSHDYAMVMFLTAAAVPMAIIIGSTKAALRKQSEAPADHAAVME”, the protein production entry is “failed”.

On to “MAGAMRKMAVYLGLVEDDGYDGRGFDPDDDFEPELDPEPERDRRRHEPPHQSHQALHPQRDESVRVVQPPMQRDPVPHSASLPAESVRPARIAPVASITQERQSLEKNAPVIMPKVVSEREPYRITTLHPRTYNEARTIGEHFREGTPVIMNLTEMDDTDAKRLVDFAAGLVFGLHGSIERVTQKVFLLSPANVDVTAEDKARIAEGGFFNQSLEHHHHHH”, for which the protein production entry was “not failed”. Take “MAGDQELELRFDVPLYTLAEASRYLVVPRATLATWADGYERRPANAPAVQGQPIITALPHPTGSHARLPFVGIAEAYVLNAFRRAGVPMQRIRPSLDWLIKNVGPHALASQDLCTDGAEVLWRFAERSGEGSPDDLVVRGLIVPRSGQYVFKEIVEHYLQQISFADDNLASMIRLPQYGDANVVLDPRRGYGQPVFDGSGVRVADVLGPLRAGATFQAVADDYGVTPDQLRDALDAIAA”: the protein production entry is “not failed”. Then “MAGGLGKCSKIRHIVRLRQMLRRWRDQARMSSSFSRCVPSDVPSGHVAVYVGSSCRRFVVRATYLNHPVLRNLLVQAEEEFGFVNQGPLVIPCEESVFEESIRFISRSDSTRSRRFTCPDDFQKNCHVVGIRSKLDLWIESRPLLHGVTEKAVW”, with “failed”; and “MAGIRLLPEEPETTPQQQARAAAAVTTTTTDSLASDDDRSIAADSWSIKSEYGSTLDDDQRHADAAEALSSANFRVSSDYSSDKEEPDADGGGQSMLGLQSYWDAAYSDELTNFREHGHAGEVWFGDDVMEIVTSWTKDLCVEISQRNMSVSENDVTTEVNDQADKYLSSWNVLDLGTGNGLLLHQLAKEGFSDLTGTDYSDGAVELAQHLSQRDGFPNIRFMVDDILDTKLEQQFKLVMDKGTLDAIGLHPDGPVKRVMYWDSVSKLVAPGGILVITSCNHTKDELVEEVENFNIRKSNLCRGDGNDANNVLSSGSEAASRIDQPPFEYLSHVRTYPTFMFSGSVGSRVATVAFLRK”, with “failed”. For the sequence “MAGLAARLVLLAGAAALASGSQGDREPVYRDCVLQCEEQNCSGGALNHFRSRQPIYMSLAGWTCRDDCKYECMWVTVGLYLQEGHKVPQFHGKWPFSRFLFFQEPASAVASFLNGLASLVMLCRYRTFVPASSPMYHTCVAFAWVSLNAWFWSTVFHTRDTDLTEKMDYFCASTVILHSIYLCCVRTVGLQHPAVVSAFRALLLLMLTVHVSYLSLIRFDYGYNLVANVAIGLVNVVWWLAWCLWNQRRLPHVRKCVVVVLLLQGLSLLELLDFPPLFWVLDAHAIWHISTIPVHVLFFSFLEDDSLYLLKESEDKFKLD”, the protein production result was “failed”. As for “MAGNSLVLPIVLWGRKAPTHCISSILLTDDGGTIVTGCHDGQICLWDVSVELEVNPRALLFGHTASITCLSKACASGDKRYTVSASANGEMCLWDVNDGRCIEFTKLACTHTGIQFYQFSVGNQQEGRLLCHGHYPEILVVDATSLEVLYSLVSKISPDWISSMSIIRSQRTQEDTVVALSVTGILKVWIVTSEMSGMQDTEPIFEEESKPIYCQNCQSISFCAFTQRSLLVVCSKYWRVFDAGDYSLLCSGPSENGQTWTGGDFVSADKVIIWTENGQSYIYKLPASCLPASDSFRSDVGKAVENLIPPVQHSLLDQKDKELVICPPVTRFFYGCKEYLHKLLIQGDSSGRLNIWNIADIAEKQEADEGLKMTTCISLQEAFDKLKPCPAGIIDQLSVIPNSNEPLKVTASVYIPAHGRLVCGREDGSIIIVPATQTAIVQLLQGEHMLRRGWPPHRTLRGHRNKVTCLLYPHQVSARYDQRYLISGGVDFSVIIWDIFSGEMKHIFCVHGGEITQLLVPPENCSVSRFI”, the protein production entry was “failed”.
